Measured values from paper PMC4241754 (Biochemistry, 2010).

Target: the molecule itself
Assay: crystal structure

B1: WlbA from Pseudomonas aeruginosa (enzyme)
chain: MASKNFALIGAAGYIAPRHMRAIKDTGNCLVSAYDINDSVGIIDSISPQSEFFTEFEFFLDHASNLKRDSATALDYVSICSPNYLHYPHIAAGLRLGCDVICEKPLVPTPEMLDQLAVIERETDKRLYNILQLRHHQAIIALKDKVAREKSPHKYEVDLTYITSRGNWYLKSWKGDPRKSFGVATNIGVHFYDMLHFIFGKLQRNVVHFTSEYKAAGYLEYEQARVRWFLSVDANDLPESVKGKKPTYRSITVNGEEMEFSEGFTDLHTTSYEEILAGRGYGIDDARHCVETVNTIRSAVIVPASDNEGHPFVAALAR
  stoichiometry N: 4
